Results on 11 molecules are retold here after patent US20230322906A1.

Where a chain is given by its changes, count along the chain named. Some results are limits rather than exact numbers.

B1: 4591-2 (antibody, V domains shown)
VH: QVQLQQWGAGLLKPSETLSLTCDVSGGSFSDFYWSWVRQSPGKGLEWIGDINHSGSSNYIPSLDGRVTISVDTSRSQFSLNLTSVTAADTAIYFCARKVWPFNGMDVWSQGTTVTVSS
VL: ATQLTQSPSFLSASVGDRVTITCRASQGIRNFLAWYQQKPGKAPNLLIYAASTLQSGVPSRFAGSGSGTEFTLTINNVQPEDFATYYCQQLTNYATFGQGTKLEIQ
B2: 6420-48.1 (antibody, V domains shown)
VH: EVQLVESGGGLVQPGGSLRLSCAASGFTFNTYEMNWVRQAPGKGLEWVSYISGTGNNIYYADSVKGRFTISRDNAKNSLYLQMDNLRAEDTAVYYCARGGQLWFGERLYFHFWGQGTLVAVSS
VL: DIQMSQSPSSLSASVGDRVTITCRASQSIGNNLNWYQQKPGKAPNLLIYAASNLQSGVPSRFSGSGSGTDFSLTISSLQPEDFTIYYCQQSFSTPITFGQGTRLEIK
B3: 6420-35 (antibody, V domains shown)
VH: EVQLVESGGDLVQPGGSLRLSCLGSGFDFRTYGMNWVRQAPGKGLEWVSYISSTSSAIYYTDSIEGRFTISRDNGKNLLSLQMSSLRDEDTAVYYCARGGSLWFGREFHAMDVWGRGTTVTVSS
VL: QAVVTQEPSLTVSPGGTVTLTCGSSTGAVTSDHYPYWFQQKPGQAPRTLIYDTINRHSWAPARFSASLLGGKAALTLSGAQPEDEAEYYCLLSYSGARRVFGGGTKLTVL
B4: 6420-48.2 (antibody, V domains shown)
VH: EVQLVESGGGLVRPGGSLRLSCAASGFTFNTYEMNWVRQAPGKGLEWLSYISSTGNNIFYADSVKGRFTISRDNAKNSLYLQMNNVRTDDTALYYCARGGQLWFGERLNFQHWGQGTQVTVSS
VL: DIQMTQSPSSLSASVGDRVTITCRASQTISNNLNWYQQKPGKAPKFLIYSVSVLQSGVPSRFSGSGSGTDFTLTITSLQPEDFATYYCQQSHSTPLTFGQGTRLEIK
B5: 6420-233.1 (antibody, V domains shown)
VH: EVQLVESGGALVQPGGSLRLSCAASGFNFISYGMNWVRQAPGKGLEWISYISSASNTIYYADSVKGRFTISRDNAKNSLYLQMTSLRDGDSALYYCARDIVTIFFRGRSQHAFSVWGQGTAVAVSS
VL: SYVLTQPPSVSVAPGQTARITCGGNNIGSKNVHWYQQKPGQAPVLVVYDNSDRPSGVPERFSGSNSGNTATLTITRVEAGDEADYYCQVWDISSDHQVFGGGTKLTAL
B6: 6420-233.2 (antibody, V domains shown)
VH: EVQLVESGGGLVQPGGSLRLSCAASGFDFRTYSMNWVRQAPGKGLEWLSYISSTSATIYSADSVKGRFTISRDNAKNSVYLQMNSLRVDDTAVYFCARERITVFFRGRSQHASNVWGQGTMVTVSS
VL: B5 VL with P7A, N25D, S29N, V32A, V57I, T75S, Y86F, I92S, A107V
B7: 4487-4 (antibody, V domains shown)
V domain 1: QVQLVQSGTELTKPGMSVKISCRASGTTFTRPYVHWVRQAPGQGLEWMGMINPTGVNVFSAQKFQGRVTMTRQTSTHTSFLELVSLTGDDTAVYYCATSSGVVSLRSAFDIWGQGTILIVSS
V domain 2: QSALSQPASVSGSLGQSITISCSGVGSDAVTYTVVSWYQQHPTKAPKIIISDGDKRPSGVSSRFSGSKSGNTAFLRISGLQTDDEALYYCCSYVGSNTWVFGGGTTVTVL
B8: 4487-5 (antibody, V domains shown)
VH: QMQLVQSGPEVRKPGSSVKVSCKASGGTFDNSAITWVRQAPGQGLEWMGGIIPFVGAAAYAQRFLGRATITADASTTSSYLELRGLTSDDTGVYFCARDGLRLNFYYYGMDVWGQGTPIIVSS
VL: QIVLTQSPGTLSLSPGDTATLSCRASQRVTHTHLAWYQQKPGQPPRLLIYATSQRATGIPDRFRGSGSGRDFTLTIASLEPEDFAVYYCQQNGESPRMFGQGTKLDVK
B9: 4513-12 (antibody, V domains shown)
VH: QLQLQESGPGLVKPSETLALTCSVSGGSIFSSNYYWAWIRQPPGKGLEWMGSVYFSGTTFYNPSLKSRVIVSVDTAKNQFSLKLNSVSAADTAIYYCARDVRMRSGRPRQYCMDVWGKGTTVTVSS
VL: EVVLTQSPGTLSLSPGERATLSCRASQSVNSIYLAWYQQKPGQAPRLLIYGASNRAAGIPDRFSGSGSGTDFTLTIDRLEPEDFAVYYCQQYDTSPAVTFGPGTKVEIK
B10: 4513-14 (antibody, V domains shown)
VH: QVQLVQSGREVKKFGSSVRVSCKASGGSFDTYAISWVRQAPGQGLEWMGQITPMFGTSHMSQRFQGRLTIDTDDSTGTVFMDMRGLRTEDSATYYCAKDWSFDDDGGAYVPSAMDVWGQGTTVIVSS
VL: EIVLTQSPGTLSVSPGERATLSCKASQSISSSSLAWYRQTPGQTPTLLIYGTSTRATGIPDRFSGRGSGTDFTLTITNVKPEDFAVYYCQQYGSSPFTFGPGTRLDFR
B11: 4513-11 (antibody, V domains shown)
VH: QVQLAQSGAEVKKPGSSVKVSCHVSGGTFSTYAINWVRQAPGHGPEWMGRITPISGATDYAQKFQARITISADESTSAAYLEVRTLRSDDTAVYYCARVGQPKFFERSSDGEHFQHWGQGTLVTVSS
VL: DIQMTQSPSTLSASVGDRTTITCRASQNIDKWLAWYQQKPGKAPTVLIFKASTLESGVPSRFSGSSSGTEFTLTIDNLQPEDSATYFCHQYSRYPWTFGQGTKVELK

The target of the first experiment is BG505.SOSIP CD4bs variants (BG505.SOSIP.D368R, BG505.SOSIP.N279K, BG505.SOSIP.D368R/N279K (DKO)). As to the kind of experiment: ELISA AUC normalized to BG505.SOSIP.backbone. In general terms: In an ELISA, binding on a coated surface is turned into a signal by an enzyme label.
Regarding B1, the fold decrease in binding against BG505.SOSIP Env is > 2 fold.

For the molecule B2, the fold decrease in binding against BG505.SOSIP Env was > 2 fold.

Regarding B3, the fold decrease in binding against BG505.SOSIP Env was > 2 fold.

For B4, the fold decrease in binding against BG505.SOSIP Env was > 2 fold.

As for B5, the fold decrease in binding against BG505.SOSIP Env is > 2 fold.

In the case of B6, the fold decrease in binding against BG505.SOSIP Env was > 2 fold.

The target in the next experiment is trimeric Env protein (HIV-1 Env gp140 trimer antigens of the panel: ZM197, CNE55, CZA97). As to the kind of experiment: ELISA (AUC) on HIV-1 Env gp140 trimer and gp120 monomer panel.
As for B7, the binding to trimeric Env protein relative to monomeric Env protein was > 3 times.

For the molecule B8, the binding to trimeric Env protein relative to monomeric Env protein was > 3 times.

Take B9: the binding to trimeric Env protein relative to monomeric Env protein was > 3 times.

Regarding B10, the binding to trimeric Env protein relative to monomeric Env protein is > 3 times.

Consider B11, for which the binding to trimeric Env protein relative to monomeric Env protein is > 3 times.
